EP4628508A1 (Biodlink Biopharm Co., Ltd., dated 2025)

Columns and labels:
human ILT4-ECD protein [1] = molecular target: T1, human ILT4-ECD protein (human, UniProt Q8N423 22-460); test: ELISA, protein coated at 1 µg/mL, antibody at 100 nM, OD450
T1 construct: also called HuILT4; LILRB2 (ILT4)

human ILT2-ECD protein [2] = molecular target: T2, human ILT2-ECD protein (human, UniProt Q8NHL6 24-461); test: as above
T2 construct: also called LILRB1 (ILT2)

[3] = molecular target: T3, human LILRA1 (R&D System, Cat: 9226-T4-050) (human, UniProt O75019 17-461); test: as above
T3 construct: Bought protein; also called LILRA1 (LIR6); LIR6

[4] = molecular target: T4, human LILRA3 (R&D System, Cat: 9517-T4-100) (human, UniProt Q8N6C8 24-439); test: as above
T4 construct: Bought protein; also called LILRA3 (LIR4)

[5] = molecular target: T5, human ILT4 expressed on the surface of CHO cells (CHO-huILT4) (human, UniProt Q8N423 22-597); test: flow cytometry on CHO-huILT4 cells
T5 construct: CHO cells infected with lentivirus lenti-huILT4; also called CHO-ILT4; CHO-huILT4 cells

human ILT4-ECD protein [6] = molecular target: T1, human ILT4-ECD protein; test: BLI (Octet RED96e), antibody on AHC biosensor, HuILT4 at 100/50/25 nM
[7] = molecular target: T6, human LILRA4 (R&D System, Cat: 8914-T4-050) (human, UniProt P59901 24-446); test: ELISA, protein coated at 1 µg/mL, antibody at 100 nM, OD450
T6 construct: Bought protein; also called LILRA4 (ILT7); ILT7

[8] = molecular target: T7, human LILRA6 (R&D System, Cat: 9088-T4-050) (human, UniProt Q6PI73 24-447); test: as above
T7 construct: Bought protein; also called LILRA6 (ILT8); ILT8

[9] = molecular target: T8, human LILRB3 (R&D System, Cat: 9159-T5-050) (human, UniProt O75022 24-443); test: as above
T8 construct: Bought protein; also called LILRB3 (ILT5); ILT5

human ILT2-ECD protein [10] = molecular target: T2, human ILT2-ECD protein; test: ELISA, human ILT2-ECD coated at 1 µg/mL

T5 sequence (Q8N423 other isoform, or with tags, fused parts or gaps limits assumed): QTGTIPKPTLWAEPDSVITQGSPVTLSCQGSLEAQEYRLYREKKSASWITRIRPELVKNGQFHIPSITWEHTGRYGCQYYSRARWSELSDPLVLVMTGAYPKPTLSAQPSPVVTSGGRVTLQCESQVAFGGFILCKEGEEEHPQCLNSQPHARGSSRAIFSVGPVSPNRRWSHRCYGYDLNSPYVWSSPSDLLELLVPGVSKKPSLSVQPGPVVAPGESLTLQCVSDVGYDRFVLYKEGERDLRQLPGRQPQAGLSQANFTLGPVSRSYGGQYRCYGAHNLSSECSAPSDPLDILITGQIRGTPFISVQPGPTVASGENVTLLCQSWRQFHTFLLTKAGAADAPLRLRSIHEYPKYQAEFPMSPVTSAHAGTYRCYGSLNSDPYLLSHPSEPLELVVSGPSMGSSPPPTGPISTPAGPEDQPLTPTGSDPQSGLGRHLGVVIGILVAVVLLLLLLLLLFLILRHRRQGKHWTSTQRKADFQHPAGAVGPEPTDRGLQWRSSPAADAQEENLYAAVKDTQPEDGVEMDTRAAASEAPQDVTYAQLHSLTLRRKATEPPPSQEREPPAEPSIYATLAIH
T3 sequence (O75019 17-461 limits assumed): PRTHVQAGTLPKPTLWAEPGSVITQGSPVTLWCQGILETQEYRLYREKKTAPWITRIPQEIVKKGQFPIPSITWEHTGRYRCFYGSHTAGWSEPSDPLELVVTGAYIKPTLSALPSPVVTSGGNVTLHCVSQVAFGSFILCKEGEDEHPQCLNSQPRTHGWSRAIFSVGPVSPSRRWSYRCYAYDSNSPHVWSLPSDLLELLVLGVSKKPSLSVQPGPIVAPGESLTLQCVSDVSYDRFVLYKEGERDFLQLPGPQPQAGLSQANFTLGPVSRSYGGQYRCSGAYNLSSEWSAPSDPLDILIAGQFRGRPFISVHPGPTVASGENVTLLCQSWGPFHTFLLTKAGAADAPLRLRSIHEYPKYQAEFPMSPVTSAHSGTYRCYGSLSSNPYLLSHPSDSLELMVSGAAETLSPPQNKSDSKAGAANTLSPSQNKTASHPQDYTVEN
T2 sequence (Q8NHL6 24-461 limits assumed): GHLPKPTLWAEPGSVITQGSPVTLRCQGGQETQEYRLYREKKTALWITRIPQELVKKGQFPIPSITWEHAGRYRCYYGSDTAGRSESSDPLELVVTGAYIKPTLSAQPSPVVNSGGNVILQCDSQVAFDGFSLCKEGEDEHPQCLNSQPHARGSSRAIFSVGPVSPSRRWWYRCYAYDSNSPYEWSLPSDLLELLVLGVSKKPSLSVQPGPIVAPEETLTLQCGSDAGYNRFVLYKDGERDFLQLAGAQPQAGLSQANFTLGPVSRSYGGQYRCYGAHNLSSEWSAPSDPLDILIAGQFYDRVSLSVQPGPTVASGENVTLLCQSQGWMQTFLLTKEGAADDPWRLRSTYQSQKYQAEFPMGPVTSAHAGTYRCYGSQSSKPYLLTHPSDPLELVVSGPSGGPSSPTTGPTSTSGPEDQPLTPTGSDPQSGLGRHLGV
T1 sequence (Q8N423 other isoform, or with tags, fused parts or gaps limits assumed): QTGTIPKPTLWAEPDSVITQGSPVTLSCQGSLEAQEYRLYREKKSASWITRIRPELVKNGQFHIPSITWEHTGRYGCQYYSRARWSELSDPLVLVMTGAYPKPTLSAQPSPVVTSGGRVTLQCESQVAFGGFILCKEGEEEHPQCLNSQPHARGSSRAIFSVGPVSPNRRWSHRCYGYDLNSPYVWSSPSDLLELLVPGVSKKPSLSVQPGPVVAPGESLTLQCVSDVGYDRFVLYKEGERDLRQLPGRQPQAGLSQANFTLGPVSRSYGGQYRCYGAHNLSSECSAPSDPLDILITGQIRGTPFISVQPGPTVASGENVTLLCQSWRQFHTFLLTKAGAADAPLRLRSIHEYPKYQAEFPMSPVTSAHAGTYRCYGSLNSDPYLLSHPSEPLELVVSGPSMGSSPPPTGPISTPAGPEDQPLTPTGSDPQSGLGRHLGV
T4 sequence (Q8N6C8 24-439 limits assumed): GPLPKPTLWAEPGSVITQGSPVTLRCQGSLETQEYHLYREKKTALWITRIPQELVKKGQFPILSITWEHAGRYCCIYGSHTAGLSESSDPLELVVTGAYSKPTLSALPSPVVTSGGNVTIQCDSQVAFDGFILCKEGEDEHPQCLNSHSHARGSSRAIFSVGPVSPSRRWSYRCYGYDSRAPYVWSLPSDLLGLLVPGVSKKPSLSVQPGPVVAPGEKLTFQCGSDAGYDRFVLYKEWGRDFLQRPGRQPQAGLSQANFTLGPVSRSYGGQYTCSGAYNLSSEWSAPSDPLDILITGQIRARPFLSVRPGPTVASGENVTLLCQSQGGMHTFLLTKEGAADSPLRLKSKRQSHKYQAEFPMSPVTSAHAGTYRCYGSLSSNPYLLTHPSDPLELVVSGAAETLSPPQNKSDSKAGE
T6 sequence (P59901 24-446 limits assumed): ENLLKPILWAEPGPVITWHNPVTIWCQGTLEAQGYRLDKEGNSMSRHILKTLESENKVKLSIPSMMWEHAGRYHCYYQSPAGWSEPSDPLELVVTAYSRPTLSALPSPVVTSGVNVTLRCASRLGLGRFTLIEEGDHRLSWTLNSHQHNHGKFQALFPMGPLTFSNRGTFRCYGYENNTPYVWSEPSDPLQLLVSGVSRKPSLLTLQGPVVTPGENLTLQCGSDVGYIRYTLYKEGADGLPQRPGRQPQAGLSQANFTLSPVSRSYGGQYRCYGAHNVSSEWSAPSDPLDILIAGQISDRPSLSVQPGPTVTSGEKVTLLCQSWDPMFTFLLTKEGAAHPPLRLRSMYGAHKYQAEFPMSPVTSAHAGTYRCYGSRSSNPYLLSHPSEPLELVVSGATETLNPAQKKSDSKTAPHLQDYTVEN
T7 sequence (Q6PI73 24-447 limits assumed): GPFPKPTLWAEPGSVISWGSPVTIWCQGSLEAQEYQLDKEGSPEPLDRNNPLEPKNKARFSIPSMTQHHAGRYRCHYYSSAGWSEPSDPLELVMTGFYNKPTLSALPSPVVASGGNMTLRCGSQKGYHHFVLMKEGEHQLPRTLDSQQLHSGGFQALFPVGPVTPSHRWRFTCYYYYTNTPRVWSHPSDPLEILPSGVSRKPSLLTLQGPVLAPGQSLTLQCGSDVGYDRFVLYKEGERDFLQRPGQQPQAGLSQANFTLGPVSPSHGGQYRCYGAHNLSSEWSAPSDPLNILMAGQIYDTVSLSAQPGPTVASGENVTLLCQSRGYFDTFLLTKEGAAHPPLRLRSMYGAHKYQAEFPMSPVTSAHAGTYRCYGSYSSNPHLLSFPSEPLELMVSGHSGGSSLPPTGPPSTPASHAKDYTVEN

Row | Binder | EC50 [5] | Kd (human ILT4-ECD protein [6]) | kon (human ILT4-ECD protein [6]) | further results
1 | PR304683 (antibody, V domains shown, also called Control antibody PR304683 (NGM: WO2021127200); NGM707) VH: QVQLVQSGAEVKKPGASVKVSCKASGYTFTDYYINWVRQAPGQGLEWMGNVNPNDGGTTYNQKFKGRVTMTTDTSTSTAYMELRSLRSDDTAVYYCARREIYFYGTIYYYAMDYWGQGTLVTVSS VL: DIQLTQSPSFLSASVGDRVTITCRASESVDYYGNSFMYWYQQKPGKAPKLLIYFASNLESGVPSRFSGSGSGTEFTLTISSLQPEDFATYYCQQNNEDPWTFGGGTKVEIK |  |  |  | binding result (human ILT4-ECD protein [1]): binds; binding result (human ILT2-ECD protein [2]): binds; binding result [3]: binds; binding result [4]: binds
2 | PR302261 (antibody, human IgG1, kappa, V domains shown, IgG1; also called PR302261 (IgG1)) VH: EVQLLESGGGLVQSGGSLRLSCAASGFTFSSYAMSWVRQAPGKGLGWVSTISGSGGSAYYADSVKGRFTVSRDNSKKTLYLQMNSLRAEDTAVYFCAILSGDDAFDIWGQGTMVTVSS VL: DVVMTQSPLSLPVTPGEPASISCRSSQSLLRGNGYNYLDWYLQKPGQSPQLLIYLGSNRASGVPDRFSGSGSGTDFTLKISRVEAEDVGIFYCMQALQSPLTFGGGTKVEIKR |  | 0.984 nM | 520000 M⁻¹ s⁻¹ | 
3 | PR302951 (antibody, human IgG1, kappa, V domains shown, IgG1; also called PR302951 (IgG1)) VH: EVQLLESGGGLVQPGGSLRLSCAASRFTFSTYAMSWVRQAPGKGLEWVSSISGSGFNTYYADSVKGRFTISSDSSKNTLYLQMNSLRAEDTAVYYCAKDRQWLVSSFDYWGQGTLVTVSS VL: DIQMTQSPSSLSASVGDRVTITCQASQDISNYLNWYQQKPGKAPKLLIYDASNLETGVPSRFSGSGSGTDFTFTISSLQPEDIATYYCQQYDNLITFGQGTRLEIKR | 1.05 nM | 0.256 nM | 915000 M⁻¹ s⁻¹ | 
4 | PR302264-2 (antibody, human IgG4 S228P, kappa, V domains shown, PTM variant of PR302264, IgG4; also called PR302264-2 (IgG4)) VH: QVQLQQWGAGLLKPSETLSLTCAVYGGSLSGYYWSWIRQPPGKGLEWIGEIAHSGGTNYNPSLKSRVTISVPTSKNQFSLKLTSVTAADTAVYYCARGQQQLDWYFDLWGRGTLVTVSS VL: EIVMTQSPATLSVSPGERATLSCRASQNIYSHLVWYQQKPGQAPRLLIYGASTRATGIPARFSGSGSGTEFTLTITSLQSEDFTVYYCQQYNDWPPITFGQGTRLEIRR |  | 0.0767 nM | 472000 M⁻¹ s⁻¹ | binding result (human ILT2-ECD protein [2]): binds; binding result [3]: binds
5 | PR302264 (antibody, human IgG1, kappa, V domains shown, IgG1; also called PR302264 (IgG1)) VH: QVQLQQWGAGLLKPSETLSLTCAVYGGSLSGYYWSWIRQPPGKGLEWIGEINHSGGTNYNPSLKSRVTISVPTSKNQFSLKLTSVTAADTAVYYCARGQQQLDWYFDLWGRGTLVTVSS VL: EIVMTQSPATLSVSPGERATLSCRASQNIYSHLVWYQQKPGQAPRLLIYGASTRATGIPARFSGSGSGTEFTLTITSLQSEDFTVYYCQQYNDWPPITFGQGTRLEIRR |  | 0.242 nM | 462000 M⁻¹ s⁻¹ | 
6 | PR001795 (antibody, V domains shown, also called control antibody PR001795 (Merck: US20180298096); MK-4830) VH: EVQLQQWGAGLLKPSETLSLTCAVYGGSFSGYYWSWIRQPPGKGLEWIGEINHAGSTNYNPSLKSRVTISVDTSKNQFSLKLSSVTAADTAVYYCARLPTRWVTTRYFDLWGRGTLVTVSS VL: ESVLTQPPSVSGAPGQRVTISCTGSSSNIGAGYDVHWYQQLPGTAPKLLIYGDSNRPSGVPDRFSVSKSGASASLAITGLQAEDEADYYCQSFDNSLSAYVFGGGTQLTVL |  | 3.52 nM | 431000 M⁻¹ s⁻¹ | 
7 | PR301366 (antibody, V domains shown, also called control antibody PR301366 (Five Prime: WO2020014132)) VH: EVQLLESGGGLVQPGGSLRLSCAASGFTFSNYAMNWVRQAPGKGLEWVSVISVSGGSTYYADSVKGRFTISRDNSKNTLYLQMNSLRAEDTAVYYCAKDYYYDSGSYYDSFFDYWGQGTLVTVSS VL: not shown | 1.07 nM |  |  | 
8 | PR302259 (antibody, human IgG1, kappa, V domains shown, IgG1; also called PR302259 (IgG1)) VH: EVQLLESGGGLVQPGGSLRLSCAVSGFTFSSYAMSWVRQAPGKGLEWVSAISDNAGSTYYADSVKGRFTISRDNSKNTLHLQMNSLRAEDTAVYSCAKERQWLVLGVMDAWGQGASVTVSS VL: not shown |  | < 0.001 nM | 773000 M⁻¹ s⁻¹ | 

More lines, main results first:

Row | EC50 [5] | Kd (human ILT4-ECD protein [6]) | kon (human ILT4-ECD protein [6]) | Binder | further results
9 | 0.805 nM | 0.884 nM | 980000 M⁻¹ s⁻¹ | PR302927 (antibody, human IgG1, kappa, V domains shown, IgG1; also called PR302927 (IgG1)) VH: EVQLLESGGGLVQPGGSLRLSCAASGFTFSSYAMSWVRQAPGKGLEWVSTINHIGDSTYYADSVKGRFTISRDNSKNTLYLQMNSLRAEDTAVYYCAKDQWFGVFDYWGQGTLVTVSS VL: not shown | 
10 | 1.13 nM | 0.458 nM | 694000 M⁻¹ s⁻¹ | PR302934 (antibody, human IgG1, kappa, V domains shown, IgG1; also called PR302934 (IgG1)) VH: QVQLQQWGAGLLKPSETLSLTCAVYGGSFSGYYWSWIRQTLGKGLEWIGEVSHSGGTNYNPSLKSRVTISVDTSKNQFSLKLSSVTAADTAVYYCARSPYYGDYMYVFDIWGQGTMVTVSS VL: not shown | binding result (human ILT2-ECD protein [2]): binds; binding result [3]: binds; binding result [7]: binds; binding result [8]: binds; binding result [9]: binds
11 |  | 0.124 nM | 648000 M⁻¹ s⁻¹ | PR302282 (antibody, human IgG1, kappa, V domains shown, IgG1; also called PR302282 (IgG1)) VH: QVQLVESGGTVVQSGRSLRLSCAASGFTFSSYGMHWVRQAPGKGLEWVAGMWYDGNYKYYADSVKGRFTISRDNSKNTLSLQMNSLRAEDTAVYYCARDSPIGVFDYWGQGTLVTVSS VL: DIQMTQSPSSLSASVGDRVTITCQASQDISNYLNWYQQKPGKAPKLLIYDASNLETGVPSRFSGSGSGTDFTFTISSLQPEDIATYYCQQYDNLITFGQGTRLEIKR | 
12 | 1.58 nM |  |  | PR302702 (antibody, human IgG1, kappa, V domains shown, IgG1; also called PR302702 (IgG1)) VH: EVQLLESGGGLVQPGGSLRLSCAASGFTFSTYAMTWVRQAPGKGLEWVSSISGSDFNTYYADSVKGRFTISRDISKNTLYLQMNSLRAEDTAVYYCAKDQEWLVRSFHHWGQGTLVTVSS VL: DIQMTQFPSSLFAFVGDRVTITCQASQDISNYLNWYQQKAGKAPKLLINDASNLETGVPSRFSGSGFGTDFTFTISSLQPEDFATYYCQQYENLPTFGGGTKVEIKR | 
13 | 0.822 nM | 0.454 nM | 985000 M⁻¹ s⁻¹ | PR302949 (antibody, human IgG1, kappa, V domains shown, IgG1; also called PR302949 (IgG1)) VH: EVQLLESGGGLVQPGGSLRLSCAASGFTFSSYAMSWVRQAPGKGLEWVSSISGSDFSTYYADSVKGRFTISRDTSKNTLYLQMNSLRAEDTAVYYCAKDRQWLVSSFDFWGQGALVTVSS VL: DIQMTQSPSSLSASVGDRVTITCQASQDISNYLNWYQQKPGKAPKLLIYDASNLETGVPSRFSGSGSGTDFTFTISSLQPEDIATYYCQQYDNLITFGQGTRLEIKR | 
14 | 1.09 nM |  |  | PR302950 (antibody, human IgG1, kappa, V domains shown, IgG1; also called PR302950 (IgG1)) VH: QVQLQESGPGLVKPSGTLSLTCAVSGGSISSSNWWSWVRQPPGKGLEWIGEVYHSGSTNYNPSLKSRVTISVDKSQNQFSLKLTSVTAADTAVYYCARVTGNKDYYYYDLDVWGQGTTVTVSS VL: not shown | 
15 |  | 0.351 nM | 454000 M⁻¹ s⁻¹ | PR302264-3 (antibody, human IgG4 S228P, kappa, V domains shown, PTM variant of PR302264, IgG4; also called PR302264-3 (IgG4)) VH: QVQLQQWGAGLLKPSETLSLTCAVYGGSLSGYYWSWIRQPPGKGLEWIGEITHSGGTNYNPSLKSRVTISVPTSKNQFSLKLTSVTAADTAVYYCARGQQQLDWYFDLWGRGTLVTVSS VL: EIVMTQSPATLSVSPGERATLSCRASQNIYSHLVWYQQKPGQAPRLLIYGASTRATGIPARFSGSGSGTEFTLTITSLQSEDFTVYYCQQYNDWPPITFGQGTRLEIRR | binding result (human ILT2-ECD protein [10]): binds
